*1 amine or outer side, *2 acyl side, *3 side chain or, on linkers, in order; H or OH if unused. Side-chain parts run from the residue outwards. The star is where a group is joined. C20 diacid = O=C(O)CCCCCCCCCCCCCCCCCCC(=O)*; C18 diacid = O=C(O)CCCCCCCCCCCCCCCCC(=O)*; γGlu = O=C(O)[C@H](CCC(=O)[*:2])N[*:1]
T1: human amylin-3(a) receptor (human, UniProt P30988 25-474; O60896 24-148)
T1 sequence (looked up) 1: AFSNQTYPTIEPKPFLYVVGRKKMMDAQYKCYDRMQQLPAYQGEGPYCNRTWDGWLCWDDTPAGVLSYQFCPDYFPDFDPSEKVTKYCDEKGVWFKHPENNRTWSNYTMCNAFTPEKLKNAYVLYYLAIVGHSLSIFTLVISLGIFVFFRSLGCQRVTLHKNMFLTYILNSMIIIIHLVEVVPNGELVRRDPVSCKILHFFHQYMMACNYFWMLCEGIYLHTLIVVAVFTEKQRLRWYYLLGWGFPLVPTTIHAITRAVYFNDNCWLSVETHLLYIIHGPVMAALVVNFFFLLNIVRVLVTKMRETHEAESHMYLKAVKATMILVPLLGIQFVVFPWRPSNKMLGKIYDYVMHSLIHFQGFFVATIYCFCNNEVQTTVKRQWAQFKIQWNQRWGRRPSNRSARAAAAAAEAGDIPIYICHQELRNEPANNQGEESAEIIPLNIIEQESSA
T1 sequence (looked up) 2: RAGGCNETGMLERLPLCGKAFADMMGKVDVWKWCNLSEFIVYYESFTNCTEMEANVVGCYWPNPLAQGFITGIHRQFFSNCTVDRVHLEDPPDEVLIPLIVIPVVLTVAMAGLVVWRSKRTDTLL

T2: human calcitonin receptor (a) (human, UniProt P30988 25-474)
T2 sequence (looked up): T1 sequence (looked up) 1

B1: N^1-[(4S)-4-carboxy-4-(17-carboxyheptadecanoylamino)butanoyl]-[Ala1,Ser2,His3,Leu4,Ser5,Ala7,Gln8,Ala10,Glu14,His17,Asp21,Pro25,Pro28,Pro29,Asp31]-human amylin (peptide)
peptide: {C18 diacid-γGlu}-ASHLSTAQTARLAEFLHHSSDNFGPILPPTDVGSNTY-NH2
SMILES: CC[C@H](C)[C@H](NC(=O)[C@@H]1CCCN1C(=O)CNC(=O)[C@H](Cc1ccccc1)NC(=O)[C@H](CC(N)=O)NC(=O)[C@H](CC(=O)O)NC(=O)[C@H](CO)NC(=O)[C@H](CO)NC(=O)[C@H](Cc1c[nH]cn1)NC(=O)[C@H](Cc1c[nH]cn1)NC(=O)[C@H](CC(C)C)NC(=O)[C@H](Cc1ccccc1)NC(=O)[C@H](CCC(=O)O)NC(=O)[C@H](C)NC(=O)[C@H](CC(C)C)NC(=O)[C@H](CCCNC(=N)N)NC(=O)[C@H](C)NC(=O)[C@@H](NC(=O)[C@H](CCC(N)=O)NC(=O)[C@H](C)NC(=O)[C@@H](NC(=O)[C@H](CO)NC(=O)[C@H](CC(C)C)NC(=O)[C@H](Cc1c[nH]cn1)NC(=O)[C@H](CO)NC(=O)[C@H](C)NC(=O)CC[C@H](NC(=O)CCCCCCCCCCCCCCCCC(=O)O)C(=O)O)[C@@H](C)O)[C@@H](C)O)C(=O)N[C@@H](CC(C)C)C(=O)N1CCC[C@H]1C(=O)N1CCC[C@H]1C(=O)N[C@H](C(=O)N[C@@H](CC(=O)O)C(=O)N[C@H](C(=O)NCC(=O)N[C@@H](CO)C(=O)N[C@@H](CC(N)=O)C(=O)N[C@H](C(=O)N[C@@H](Cc1ccc(O)cc1)C(N)=O)[C@@H](C)O)C(C)C)[C@@H](C)O
B2: N^1-acetyl,N{Epsilon-25}-[(4S)-4-carboxy-4-(17-carboxyheptadecanoylamino)butanoyl]-[Ala1,Ser2,His3,Leu4,Ser5,Ala7,Gln8,Ala10,Glu14,His17,Asp21,Pro22,Lys25,Pro27 … (peptide)
peptide: Ac-ASHLSTAQTARLAEFLHHSSDPFGK([γGlu-C18 diacid])IPSSTDVGPDTP-NH2
SMILES: CC[C@H](C)[C@H](NC(=O)[C@H](CCCCNC(=O)CC[C@H](NC(=O)CCCCCCCCCCCCCCCCC(=O)O)C(=O)O)NC(=O)CNC(=O)[C@H](Cc1ccccc1)NC(=O)[C@@H]1CCCN1C(=O)[C@H](CC(=O)O)NC(=O)[C@H](CO)NC(=O)[C@H](CO)NC(=O)[C@H](Cc1c[nH]cn1)NC(=O)[C@H](Cc1c[nH]cn1)NC(=O)[C@H](CC(C)C)NC(=O)[C@H](Cc1ccccc1)NC(=O)[C@H](CCC(=O)O)NC(=O)[C@H](C)NC(=O)[C@H](CC(C)C)NC(=O)[C@H](CCCNC(=N)N)NC(=O)[C@H](C)NC(=O)[C@@H](NC(=O)[C@H](CCC(N)=O)NC(=O)[C@H](C)NC(=O)[C@@H](NC(=O)[C@H](CO)NC(=O)[C@H](CC(C)C)NC(=O)[C@H](Cc1c[nH]cn1)NC(=O)[C@H](CO)NC(=O)[C@H](C)NC(C)=O)[C@@H](C)O)[C@@H](C)O)C(=O)N1CCC[C@H]1C(=O)N[C@@H](CO)C(=O)N[C@@H](CO)C(=O)N[C@H](C(=O)N[C@@H](CC(=O)O)C(=O)N[C@H](C(=O)NCC(=O)N1CCC[C@H]1C(=O)N[C@@H](CC(=O)O)C(=O)N[C@H](C(=O)N1CCC[C@H]1C(N)=O)[C@@H](C)O)C(C)C)[C@@H](C)O
B3: N^1-[(4S)-4-carboxy-4-(17-carboxyheptadecanoylamino)butanoyl]-[Ala1,Ser2,His3,Leu4,Ser5,Ala7,Gln8,Ala10,Glu14,His17,Asp21,Pro22,Pro27,Asp31, Pro34,Asp35]-human … (peptide)
peptide: {C18 diacid-γGlu}-ASHLSTAQTARLAEFLHHSSDPFGAIPSSTDVGPDTY-NH2
SMILES: CC[C@H](C)[C@H](NC(=O)[C@H](C)NC(=O)CNC(=O)[C@H](Cc1ccccc1)NC(=O)[C@@H]1CCCN1C(=O)[C@H](CC(=O)O)NC(=O)[C@H](CO)NC(=O)[C@H](CO)NC(=O)[C@H](Cc1c[nH]cn1)NC(=O)[C@H](Cc1c[nH]cn1)NC(=O)[C@H](CC(C)C)NC(=O)[C@H](Cc1ccccc1)NC(=O)[C@H](CCC(=O)O)NC(=O)[C@H](C)NC(=O)[C@H](CC(C)C)NC(=O)[C@H](CCCNC(=N)N)NC(=O)[C@H](C)NC(=O)[C@@H](NC(=O)[C@H](CCC(N)=O)NC(=O)[C@H](C)NC(=O)[C@@H](NC(=O)[C@H](CO)NC(=O)[C@H](CC(C)C)NC(=O)[C@H](Cc1c[nH]cn1)NC(=O)[C@H](CO)NC(=O)[C@H](C)NC(=O)CC[C@H](NC(=O)CCCCCCCCCCCCCCCCC(=O)O)C(=O)O)[C@@H](C)O)[C@@H](C)O)C(=O)N1CCC[C@H]1C(=O)N[C@@H](CO)C(=O)N[C@@H](CO)C(=O)N[C@H](C(=O)N[C@@H](CC(=O)O)C(=O)N[C@H](C(=O)NCC(=O)N1CCC[C@H]1C(=O)N[C@@H](CC(=O)O)C(=O)N[C@H](C(=O)N[C@@H](Cc1ccc(O)cc1)C(N)=O)[C@@H](C)O)C(C)C)[C@@H](C)O
B4: N^1-[(4S)-4-carboxy-4-(19-carboxynonadecanoylamino)butanoyl]-[Ala1,Ser2,His3,Leu4,Ser5,Ala7,Gln8,Ala10,Glu14,His17,Pro25,Pro28,Pro29,Asp31,Glu35,Pro37],des-(19- … (peptide)
peptide: {C20 diacid-γGlu}-ASHLSTAQTARLAEFLHHFGPILPPTDVGSETP-NH2
SMILES: CC[C@H](C)[C@H](NC(=O)[C@@H]1CCCN1C(=O)CNC(=O)[C@H](Cc1ccccc1)NC(=O)[C@H](Cc1c[nH]cn1)NC(=O)[C@H](Cc1c[nH]cn1)NC(=O)[C@H](CC(C)C)NC(=O)[C@H](Cc1ccccc1)NC(=O)[C@H](CCC(=O)O)NC(=O)[C@H](C)NC(=O)[C@H](CC(C)C)NC(=O)[C@H](CCCNC(=N)N)NC(=O)[C@H](C)NC(=O)[C@@H](NC(=O)[C@H](CCC(N)=O)NC(=O)[C@H](C)NC(=O)[C@@H](NC(=O)[C@H](CO)NC(=O)[C@H](CC(C)C)NC(=O)[C@H](Cc1c[nH]cn1)NC(=O)[C@H](CO)NC(=O)[C@H](C)NC(=O)CC[C@H](NC(=O)CCCCCCCCCCCCCCCCCCC(=O)O)C(=O)O)[C@@H](C)O)[C@@H](C)O)C(=O)N[C@@H](CC(C)C)C(=O)N1CCC[C@H]1C(=O)N1CCC[C@H]1C(=O)N[C@H](C(=O)N[C@@H](CC(=O)O)C(=O)N[C@H](C(=O)NCC(=O)N[C@@H](CO)C(=O)N[C@@H](CCC(=O)O)C(=O)N[C@H](C(=O)N1CCC[C@H]1C(N)=O)[C@@H](C)O)C(C)C)[C@@H](C)O
B5: N^1-[(4S)-4-carboxy-4-(19-carboxynonadecanoylamino)butanoyl]-[Ala1,Ser2,His3,Leu4,Ser5,Ala7,Gln8,Ala10,Glu14,His17,Asp21,Pro22,Pro27,Asp31, … (peptide)
peptide: {C20 diacid-γGlu}-ASHLSTAQTARLAEFLHHSSDPFGAIPSSTDVGPDTP-NH2
SMILES: CC[C@H](C)[C@H](NC(=O)[C@H](C)NC(=O)CNC(=O)[C@H](Cc1ccccc1)NC(=O)[C@@H]1CCCN1C(=O)[C@H](CC(=O)O)NC(=O)[C@H](CO)NC(=O)[C@H](CO)NC(=O)[C@H](Cc1c[nH]cn1)NC(=O)[C@H](Cc1c[nH]cn1)NC(=O)[C@H](CC(C)C)NC(=O)[C@H](Cc1ccccc1)NC(=O)[C@H](CCC(=O)O)NC(=O)[C@H](C)NC(=O)[C@H](CC(C)C)NC(=O)[C@H](CCCNC(=N)N)NC(=O)[C@H](C)NC(=O)[C@@H](NC(=O)[C@H](CCC(N)=O)NC(=O)[C@H](C)NC(=O)[C@@H](NC(=O)[C@H](CO)NC(=O)[C@H](CC(C)C)NC(=O)[C@H](Cc1c[nH]cn1)NC(=O)[C@H](CO)NC(=O)[C@H](C)NC(=O)CC[C@H](NC(=O)CCCCCCCCCCCCCCCCCCC(=O)O)C(=O)O)[C@@H](C)O)[C@@H](C)O)C(=O)N1CCC[C@H]1C(=O)N[C@@H](CO)C(=O)N[C@@H](CO)C(=O)N[C@H](C(=O)N[C@@H](CC(=O)O)C(=O)N[C@H](C(=O)NCC(=O)N1CCC[C@H]1C(=O)N[C@@H](CC(=O)O)C(=O)N[C@H](C(=O)N1CCC[C@H]1C(N)=O)[C@@H](C)O)C(C)C)[C@@H](C)O

Target: T1, human amylin-3(a) receptor
Assay: cell-based or functional assay

hAmyR3 potency, EC50 (pM); CRE-luciferase reporter in BHK cells [pM]	Binder
1.97	B1
1.38	B2
1.68	B3
1.09	B4
1.05	B5

Target: T2, human calcitonin receptor (a)
Assay: cell-based or functional assay

hCalcR potency, EC50 (pM); CRE-luciferase reporter in BHK cells [pM]	Binder
3.15	B1
1.29	B2
2.16	B3
1.49	B4
1.41	B5

Source: US20260209293A1 (Novo Nordisk, published 2026)
